Reference: paper PMC9482650, “Quantitative fragmentomics allow affinity mapping of interactomes” (Nature Communications, 2022)

Biological target: T1, CNKSR1, Q969H4
T1 sequence (Q969H4 191-295, limits assumed, looked up): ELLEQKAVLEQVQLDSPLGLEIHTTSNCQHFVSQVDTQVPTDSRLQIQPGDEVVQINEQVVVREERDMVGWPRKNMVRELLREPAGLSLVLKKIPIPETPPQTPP
Experiment: holdup assay
Design: key: below the threshold = too weak to quantify, mostly under pKd 3.1 to 4
Settings: plain residues with an end cap or a label only (N-terminal biotin on a linker: ttds)

Binder	pKd
SSRTRRETQL [HPV16-E6, P03126]	below the threshold
PKTPPTDTSV [KIR3DL3, Q8N743]	below the threshold
QSARYRDTEL [TJP2, Q9UDY2]	below the threshold

Biological target: GIPC3, Q8TF64
Sequence (Q8TF64 107-202): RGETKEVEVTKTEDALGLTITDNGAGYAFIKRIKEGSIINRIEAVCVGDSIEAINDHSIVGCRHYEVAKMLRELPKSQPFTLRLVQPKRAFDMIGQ
Experiment: holdup assay
Design: key: below the threshold = too weak to quantify, mostly under pKd 3.1 to 4
Settings: plain residues with an end cap or a label only (N-terminal biotin on a linker: ttds)

Binder	pKd
SSRTRRETQL [HPV16-E6, P03126]	below the threshold
PKTPPTDTSV [KIR3DL3, Q8N743]	below the threshold
QSARYRDTEL [TJP2, Q9UDY2]	below the threshold

Biological target: IL16_2, Q14005
Sequence (Q14005 350-450): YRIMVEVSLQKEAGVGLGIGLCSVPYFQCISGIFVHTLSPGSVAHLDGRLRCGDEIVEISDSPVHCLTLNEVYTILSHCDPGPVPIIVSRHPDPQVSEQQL
Experiment: holdup assay
Design: key: below the threshold = too weak to quantify, mostly under pKd 3.1 to 4
Settings: plain residues with an end cap or a label only (N-terminal biotin on a linker: ttds)

Binder	pKd
SSRTRRETQL [HPV16-E6, P03126]	below the threshold
PKTPPTDTSV [KIR3DL3, Q8N743]	below the threshold
QSARYRDTEL [TJP2, Q9UDY2]	below the threshold

Biological target: T2, INTU, Q9ULD6
T2 sequence (Q9ULD6 180-273, limits assumed, looked up): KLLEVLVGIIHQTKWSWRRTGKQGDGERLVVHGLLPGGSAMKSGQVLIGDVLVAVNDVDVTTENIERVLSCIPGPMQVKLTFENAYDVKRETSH
Experiment: holdup assay
Design: key: below the threshold = too weak to quantify, mostly under pKd 3.1 to 4
Settings: plain residues with an end cap or a label only (N-terminal biotin on a linker: ttds)

Binder	pKd
SSRTRRETQL [HPV16-E6, P03126]	below the threshold
PKTPPTDTSV [KIR3DL3, Q8N743]	below the threshold
QSARYRDTEL [TJP2, Q9UDY2]	below the threshold

Biological target: T3, LNX2_4, Q8N448
T3 sequence (Q8N448 595-690, limits assumed, looked up): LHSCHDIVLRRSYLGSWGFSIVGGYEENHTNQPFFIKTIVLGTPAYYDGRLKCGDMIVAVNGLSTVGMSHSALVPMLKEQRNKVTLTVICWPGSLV
Experiment: holdup assay
Design: key: below the threshold = too weak to quantify, mostly under pKd 3.1 to 4
Settings: plain residues with an end cap or a label only (N-terminal biotin on a linker: ttds)

Binder	pKd
SSRTRRETQL [HPV16-E6, P03126]	below the threshold
PKTPPTDTSV [KIR3DL3, Q8N743]	below the threshold
QSARYRDTEL [TJP2, Q9UDY2]	below the threshold

Biological target: MAGI1_3, Q96QZ7
Sequence (Q96QZ7 638-725): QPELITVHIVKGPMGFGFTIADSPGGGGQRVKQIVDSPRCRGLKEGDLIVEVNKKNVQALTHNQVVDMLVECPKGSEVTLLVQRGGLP
Experiment: holdup assay
Design: key: below the threshold = too weak to quantify, mostly under pKd 3.1 to 4
Settings: plain residues with an end cap or a label only (N-terminal biotin on a linker: ttds)

Binder	pKd
SSRTRRETQL [HPV16-E6, P03126]	4.16
PKTPPTDTSV [KIR3DL3, Q8N743]	below the threshold
QSARYRDTEL [TJP2, Q9UDY2]	below the threshold

Biological target: T4, MAGI2_1, Q86UL8
T4 sequence (Q86UL8 12-111, limits assumed, looked up): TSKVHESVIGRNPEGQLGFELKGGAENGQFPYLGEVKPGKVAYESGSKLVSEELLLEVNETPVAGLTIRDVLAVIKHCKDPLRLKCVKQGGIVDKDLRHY
Experiment: holdup assay
Design: key: below the threshold = too weak to quantify, mostly under pKd 3.1 to 4
Settings: plain residues with an end cap or a label only (N-terminal biotin on a linker: ttds)

Binder	pKd
SSRTRRETQL [HPV16-E6, P03126]	below the threshold
PKTPPTDTSV [KIR3DL3, Q8N743]	below the threshold
QSARYRDTEL [TJP2, Q9UDY2]	below the threshold

Biological target: MAGI3_4, Q5TCQ9
Sequence (Q5TCQ9 716-815): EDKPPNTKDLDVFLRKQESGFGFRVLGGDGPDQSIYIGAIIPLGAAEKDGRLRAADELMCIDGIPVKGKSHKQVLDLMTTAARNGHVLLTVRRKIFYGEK
Experiment: holdup assay
Design: key: below the threshold = too weak to quantify, mostly under pKd 3.1 to 4
Settings: plain residues with an end cap or a label only (N-terminal biotin on a linker: ttds)

Binder	pKd
SSRTRRETQL [HPV16-E6, P03126]	below the threshold
PKTPPTDTSV [KIR3DL3, Q8N743]	below the threshold
QSARYRDTEL [TJP2, Q9UDY2]	below the threshold

Biological target: T5, MLLT4, P55196
T5 sequence (P55196 1002-1103, limits assumed, looked up): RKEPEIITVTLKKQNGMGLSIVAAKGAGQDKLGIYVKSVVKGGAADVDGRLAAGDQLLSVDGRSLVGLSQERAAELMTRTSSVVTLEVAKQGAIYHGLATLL
Experiment: holdup assay
Design: key: below the threshold = too weak to quantify, mostly under pKd 3.1 to 4
Settings: plain residues with an end cap or a label only (N-terminal biotin on a linker: ttds)

Binder	pKd
SSRTRRETQL [HPV16-E6, P03126]	below the threshold
PKTPPTDTSV [KIR3DL3, Q8N743]	below the threshold
QSARYRDTEL [TJP2, Q9UDY2]	below the threshold

Biological target: T6, MPDZ_11, O75970
T6 sequence (O75970 1720-1817, limits assumed, looked up): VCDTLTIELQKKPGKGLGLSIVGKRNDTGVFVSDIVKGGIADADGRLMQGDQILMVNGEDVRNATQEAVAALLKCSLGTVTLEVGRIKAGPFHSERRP
Experiment: holdup assay
Design: key: below the threshold = too weak to quantify, mostly under pKd 3.1 to 4
Settings: plain residues with an end cap or a label only (N-terminal biotin on a linker: ttds)

Binder	pKd
SSRTRRETQL [HPV16-E6, P03126]	below the threshold
PKTPPTDTSV [KIR3DL3, Q8N743]	below the threshold
QSARYRDTEL [TJP2, Q9UDY2]	below the threshold

Biological target: PARD3B_2, Q8TEW8
Sequence (Q8TEW8 376-471): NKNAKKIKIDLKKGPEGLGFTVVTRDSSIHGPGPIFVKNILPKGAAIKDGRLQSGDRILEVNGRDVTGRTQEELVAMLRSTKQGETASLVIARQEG
Experiment: holdup assay
Design: key: below the threshold = too weak to quantify, mostly under pKd 3.1 to 4
Settings: plain residues with an end cap or a label only (N-terminal biotin on a linker: ttds)

Binder	pKd
SSRTRRETQL [HPV16-E6, P03126]	below the threshold
PKTPPTDTSV [KIR3DL3, Q8N743]	4.37
QSARYRDTEL [TJP2, Q9UDY2]	below the threshold

Biological target: PARD3B_3, Q8TEW8
Sequence (Q8TEW8 490-594): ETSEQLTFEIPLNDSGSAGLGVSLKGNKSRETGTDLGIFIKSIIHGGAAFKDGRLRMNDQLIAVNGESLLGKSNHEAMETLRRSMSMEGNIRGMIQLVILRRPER
Experiment: holdup assay
Design: key: below the threshold = too weak to quantify, mostly under pKd 3.1 to 4
Settings: plain residues with an end cap or a label only (N-terminal biotin on a linker: ttds)

Binder	pKd
SSRTRRETQL [HPV16-E6, P03126]	below the threshold
PKTPPTDTSV [KIR3DL3, Q8N743]	below the threshold
QSARYRDTEL [TJP2, Q9UDY2]	below the threshold

Biological target: PARD3_1, Q8TEW0
Sequence (Q8TEW0 264-372): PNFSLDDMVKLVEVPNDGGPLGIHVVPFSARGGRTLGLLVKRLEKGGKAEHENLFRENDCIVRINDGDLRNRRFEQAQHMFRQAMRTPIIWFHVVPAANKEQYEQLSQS
Experiment: holdup assay
Design: key: below the threshold = too weak to quantify, mostly under pKd 3.1 to 4
Settings: plain residues with an end cap or a label only (N-terminal biotin on a linker: ttds)

Binder	pKd
SSRTRRETQL [HPV16-E6, P03126]	below the threshold
PKTPPTDTSV [KIR3DL3, Q8N743]	below the threshold
QSARYRDTEL [TJP2, Q9UDY2]	below the threshold

Biological target: T7, PDZD2_3, O15018
T7 sequence (O15018 581-682, limits assumed, looked up): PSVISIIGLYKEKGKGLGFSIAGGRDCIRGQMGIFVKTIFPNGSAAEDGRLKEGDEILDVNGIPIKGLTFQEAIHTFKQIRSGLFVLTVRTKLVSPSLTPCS
Experiment: holdup assay
Design: key: below the threshold = too weak to quantify, mostly under pKd 3.1 to 4
Settings: plain residues with an end cap or a label only (N-terminal biotin on a linker: ttds)

Binder	pKd
SSRTRRETQL [HPV16-E6, P03126]	below the threshold
PKTPPTDTSV [KIR3DL3, Q8N743]	4.08
QSARYRDTEL [TJP2, Q9UDY2]	below the threshold

Biological target: T8, PDZRN3_2, Q9UPQ7
T8 sequence (Q9UPQ7 414-513, limits assumed, looked up): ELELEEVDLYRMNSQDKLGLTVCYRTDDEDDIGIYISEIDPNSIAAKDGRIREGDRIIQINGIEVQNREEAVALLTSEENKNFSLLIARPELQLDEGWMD
Experiment: holdup assay
Design: key: below the threshold = too weak to quantify, mostly under pKd 3.1 to 4
Settings: plain residues with an end cap or a label only (N-terminal biotin on a linker: ttds)

Binder	pKd
SSRTRRETQL [HPV16-E6, P03126]	below the threshold
PKTPPTDTSV [KIR3DL3, Q8N743]	below the threshold
QSARYRDTEL [TJP2, Q9UDY2]	below the threshold

Biological target: T9, PTPN4, P29074
T9 sequence (P29074 512-599, limits assumed, looked up): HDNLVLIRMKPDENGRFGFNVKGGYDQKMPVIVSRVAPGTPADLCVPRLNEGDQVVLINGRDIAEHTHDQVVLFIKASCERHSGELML
Experiment: holdup assay
Design: key: below the threshold = too weak to quantify, mostly under pKd 3.1 to 4
Settings: plain residues with an end cap or a label only (N-terminal biotin on a linker: ttds)

Binder	pKd
SSRTRRETQL [HPV16-E6, P03126]	4.61
PKTPPTDTSV [KIR3DL3, Q8N743]	below the threshold
QSARYRDTEL [TJP2, Q9UDY2]	4.48

Biological target: RIMS1, Q86UR5
Sequence (Q86UR5 584-692): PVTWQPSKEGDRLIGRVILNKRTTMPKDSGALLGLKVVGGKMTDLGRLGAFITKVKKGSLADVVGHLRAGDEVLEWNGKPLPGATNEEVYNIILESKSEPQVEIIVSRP
Experiment: holdup assay
Design: key: below the threshold = too weak to quantify, mostly under pKd 3.1 to 4
Settings: plain residues with an end cap or a label only (N-terminal biotin on a linker: ttds)

Binder	pKd
SSRTRRETQL [HPV16-E6, P03126]	below the threshold
PKTPPTDTSV [KIR3DL3, Q8N743]	below the threshold
QSARYRDTEL [TJP2, Q9UDY2]	below the threshold

Biological target: SCRIB_4, Q14160
Sequence (Q14160 1095-1204): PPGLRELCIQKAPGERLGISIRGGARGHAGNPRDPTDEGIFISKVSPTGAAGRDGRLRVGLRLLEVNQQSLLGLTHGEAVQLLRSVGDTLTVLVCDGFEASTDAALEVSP
Experiment: holdup assay
Design: key: below the threshold = too weak to quantify, mostly under pKd 3.1 to 4
Settings: plain residues with an end cap or a label only (N-terminal biotin on a linker: ttds)

Binder	pKd
SSRTRRETQL [HPV16-E6, P03126]	below the threshold
PKTPPTDTSV [KIR3DL3, Q8N743]	below the threshold
QSARYRDTEL [TJP2, Q9UDY2]	below the threshold

Biological target: T10, SHANK2, Q9UPX8
T10 sequence (Q9UPX8 621-730, limits assumed, looked up): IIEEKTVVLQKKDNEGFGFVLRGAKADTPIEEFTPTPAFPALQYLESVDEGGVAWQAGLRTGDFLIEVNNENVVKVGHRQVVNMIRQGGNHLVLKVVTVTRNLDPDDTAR
Experiment: holdup assay
Design: key: below the threshold = too weak to quantify, mostly under pKd 3.1 to 4
Settings: plain residues with an end cap or a label only (N-terminal biotin on a linker: ttds)

Binder	pKd
SSRTRRETQL [HPV16-E6, P03126]	below the threshold
PKTPPTDTSV [KIR3DL3, Q8N743]	below the threshold
QSARYRDTEL [TJP2, Q9UDY2]	below the threshold

Biological target: T11, SHROOM2, Q13796
T11 sequence (Q13796 21-118, limits assumed, looked up): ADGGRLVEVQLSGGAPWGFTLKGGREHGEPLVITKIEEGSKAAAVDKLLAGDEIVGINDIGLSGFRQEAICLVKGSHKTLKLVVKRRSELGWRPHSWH
Experiment: holdup assay
Design: key: below the threshold = too weak to quantify, mostly under pKd 3.1 to 4
Settings: plain residues with an end cap or a label only (N-terminal biotin on a linker: ttds)

Binder	pKd
SSRTRRETQL [HPV16-E6, P03126]	below the threshold
PKTPPTDTSV [KIR3DL3, Q8N743]	below the threshold
QSARYRDTEL [TJP2, Q9UDY2]	below the threshold

Biological target: T12, SHROOM4, Q9ULL8
T12 sequence (Q9ULL8 5-102, limits assumed, looked up): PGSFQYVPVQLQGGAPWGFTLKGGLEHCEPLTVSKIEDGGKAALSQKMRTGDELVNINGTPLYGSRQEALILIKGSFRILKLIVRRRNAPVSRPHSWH
Experiment: holdup assay
Design: key: below the threshold = too weak to quantify, mostly under pKd 3.1 to 4
Settings: plain residues with an end cap or a label only (N-terminal biotin on a linker: ttds)

Binder	pKd
SSRTRRETQL [HPV16-E6, P03126]	below the threshold
PKTPPTDTSV [KIR3DL3, Q8N743]	below the threshold
QSARYRDTEL [TJP2, Q9UDY2]	below the threshold

Biological target: T13, TJP3_1, O95049
T13 sequence (O95049 6-103, limits assumed, looked up): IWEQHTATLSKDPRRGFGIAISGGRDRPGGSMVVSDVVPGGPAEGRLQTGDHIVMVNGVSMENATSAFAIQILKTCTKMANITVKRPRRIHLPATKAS
Experiment: holdup assay
Design: key: below the threshold = too weak to quantify, mostly under pKd 3.1 to 4
Settings: plain residues with an end cap or a label only (N-terminal biotin on a linker: ttds)

Binder	pKd
SSRTRRETQL [HPV16-E6, P03126]	below the threshold
PKTPPTDTSV [KIR3DL3, Q8N743]	below the threshold
QSARYRDTEL [TJP2, Q9UDY2]	below the threshold

Biological target: T14, USH1C_1, Q9Y6N9
T14 sequence (Q9Y6N9 82-179, limits assumed, looked up): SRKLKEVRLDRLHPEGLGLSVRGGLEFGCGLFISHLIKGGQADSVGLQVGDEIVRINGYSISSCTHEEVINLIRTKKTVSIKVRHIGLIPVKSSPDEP
Experiment: holdup assay
Design: key: below the threshold = too weak to quantify, mostly under pKd 3.1 to 4
Settings: plain residues with an end cap or a label only (N-terminal biotin on a linker: ttds)

Binder	pKd
SSRTRRETQL [HPV16-E6, P03126]	below the threshold
PKTPPTDTSV [KIR3DL3, Q8N743]	below the threshold
QSARYRDTEL [TJP2, Q9UDY2]	below the threshold
